Laboratory results: US20250154283A1 (published 2025)

T1: biotinylated cynomolgus monkey VWF cysteine knot (CK) domain construct (cynomolgus monkey, biotinylated in vitro (BirA) on the biotinylation tag; one N-glycan)
T1 construct: Expressed in HEK293 EBNA cells; disulfide-linked homodimer; also called cyno VWF CK; cyno VWF CK domain; not shown: in vitro biotinylation tag, HRV-3C site and 3 VWF residues before the CK domain
T1 chain: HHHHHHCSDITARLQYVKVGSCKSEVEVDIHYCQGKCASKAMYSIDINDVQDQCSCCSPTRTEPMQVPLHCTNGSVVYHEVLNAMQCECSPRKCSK


What was measured:
[1] = target: T1, biotinylated cynomolgus monkey VWF …; assay: SPR, scFv captured via anti-SV5, CK domain injected, pH 7.4, apparent Kd;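 also: scFvs from crude yeast supernatants printed on an amine-coupled anti-SV5 lawn, Kd computed as koff over kon, likely overestimating affinity because the CK construct is dimeric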
Text: (§1) Briefly, a sensor chip was activated and coupled with an anti-SV5 mouse monoclonal antibody using amine coupling. The soluble scFvs in crude yeast supernatants were printed on the anti-SV5 lawn. […] From the measured association (kₒₙ) and dissociation (koff) rate constants, an apparent equilibrium dissociation constant (Kd=koff/kₒₙ) was estimated. Due to the dimeric state of the CK construct and consequent possibility for simultaneous binding of captured scFv to both monomers in the CK dimer, the SPR setup was expected to overestimate the binding affinity.

[2] = target: T2, biotinylated human VWF cysteine knot (CK) domain construct (human, UniProt P04275 2724-2813, biotinylated in vitro (BirA) on the biotinylation tag; one N-glycan); assay: as above
T2 construct: Expressed in HEK293 EBNA cells; disulfide-linked homodimer; also called human VWF CK; human VWF CK domain; not shown: in vitro biotinylation tag, HRV-3C site and 3 VWF residues before the CK domain

[3] = target: T2, biotinylated human VWF cysteine knot …; assay: SPR, scFv captured via anti-SV5, CK domain injected, pH 5.5, apparent Kd;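 also: scFvs from crude yeast supernatants captured on chip-bound anti-SV5 antibody, Kd computed as koff divided by kon, dimeric CK construct likely makes affinity appear higher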
Text: as §1

Row | Kd [1] | Kd [2] | Kd [3] | Binder
1 | 0.758 nM | 1.76 nM | 0.731 nM | 256_Lib8_scFv (scFv, VH-linker-VL; not shown: C-terminal 3xFLAG and SV5 tags) scFv: EVQLVESGGGLVQPGRSLRLSCAASGFTVSSNAMHWVRQAPGKGLEWVSAIGTFADTDYADSVEGRFTISRDNAKNSLYLQMNSLRAEDTAVYYCAREGAAAGTNFDYWGQGTLVTVSSSGGSTITSYNVYYTKLSSSGTDIQMTQSPSSLSASVGDRVTITCRASQGIRSYLAWYQQKPGKAPKLLIYGASTLEGGVPSRFSGSGSGTDFTLTISSLQPEDVATYYCQQSYSTPPKFGGGTKVEIK
2 | 0.974 nM | 1.76 nM | 1.41 nM | 4035_Lib1_scFv (scFv, VH-linker-VL; not shown: C-terminal 3xFLAG and SV5 tags) scFv: QVQLVQSGAEVKKPGASVKVSCKVSGYAFPSYGIHWVRQAPGKGLEWMGGISAFTGDTIYAQKFQGRVTMTEDTSTDTAYMELSSLKSEDTAVYYCASGPTNVLTGLMESAEYFQHWGQGTLVTVSSSGGSTITSYNVYYTKLSSSGTDIQMTQSPSSVSASVGDRVTITCRASQGISRDLAWYQQKPGKAPKLLIYGASGRATGVPSRFSGSGSGTDFTLTISSLQPEDFANYYCQQSYITPTTFGGGTKVEIK
3 | 1.21 nM | 1.77 nM | 1.4 nM | 96_Lib4_scFv (scFv, VH-linker-VL; not shown: C-terminal 3xFLAG and SV5 tags) scFv: QVQLQESGPGLVKPSQTLSLTCTVSGESFSTSYWSWIRQPPGKGLEWIGYITHSGYTDYNPSLKSRVTMSVDTSKNQFSLKVNSVTAADTAVYYCARGGRFPFWYFDLWGRGSLVTVSSSGGSTITSYNVYYTKLSSSGTEIVMTQSPATLSLSPGERATLSCRASRSIGSNLAWYQQKPGQAPRLLIYGATTRATGIPARFSGSGSGTDFTLTISSLEPEDFAVYYCQQYKNDATFGGGTKVEIK
4 | 0.803 nM | 1.84 nM | 3.87 nM | 2301_Lib4_scFv (scFv, VH-linker-VL; not shown: C-terminal 3xFLAG and SV5 tags) scFv: QVQLQESGPGLVKPSQTLSLTCTVSGASISTSDHSWSWIRQPPGKGLEWIGYIRDTGSTDYNPSLKSRVTMSVDTSKNQFSLKVNSVTAADTAVYYCAISSTERWKQSFGVDTEYFQHWGQGTLVTVSSSGGSTITSYNVYYTKLSSSGTEIVMTQSPATLSLSPGERATLSCRASRYVSTNLAWYQQKPGQAPRLLIYDAVTRAPGIPARFSGSGSGTDFTLTISSLEPEDFAVYYCQQYHSLPLIFGGGTKVEIK
5 | 0.48 nM | 1.89 nM | 2.12 nM | Lib4_P2_B1_scFv (scFv, VH-linker-VL; not shown: C-terminal 3xFLAG and SV5 tags) scFv: QVQLVQSGAEVKKPGASVKVSCKVSGDTLSNYAIHWVRQAPGKGLEWMGGINPNAGTTIYAQKFQGRVTMTEDTSTDTAYMELSSLKSEDTAVYYCARDSSSWCPVGYYYYYMDVWGKGTTVTVSSSGGSTITSYNVYYTKLSSSGTDIQMTQSPSSVSASVGDRVTITCRASQSIGDFLAWYQQKPGKAPKLLIYDASHLQTGVPSRFSGSGSGTDFTLTISSLQPEDFANYYCQQTSTIPPTFGGGTKVEIK
6 | 0.305 nM | 2.05 nM | 0.604 nM | Lib4_P2_A2_scFv (scFv, VH-linker-VL; not shown: C-terminal 3xFLAG and SV5 tags) scFv: QVQLVQSGAEVKKPGASVKVSCKVSGDTLSNYAIHWVRQAPGKGLEWMGGINPNAGTTIYAQKFQGRVTMTEDTSTDTAYMELSSLKSEDTAVYYCARDSSSWCPVGYYYYYMDVWGKGTTVTVSSSGGSTITSYNVYYTKLSSSGTDIQMTQSPSSVSASVGDRVTITCRASQSIGDFLAWYQQKPGKAPKLLIYDASHLQTGVPSRFSGSGSGTDFTLTISSLQPEDFANYYCQQTSTIPPTFGGGTKVEIK
7 | 1.36 nM | 2.22 nM | 1.91 nM | 4956_Lib1_scFv (scFv, VH-linker-VL; not shown: C-terminal 3xFLAG and SV5 tags) scFv: QVQLVQSGAEVKKPGASVKVSCKVSGYTLTSNYIHWVRQAPGKGLEWMGGFNPSSGSTIYAQKFQGRVTMTEDTSTDTAYMELSSLKSEDTAVYYCARTLYDFWSGYLDAFDIWGQGTMVTVSSSGGSTITSYNVYYTKLSSSGTDIQMTQSPSSVSASVGDRVTITCRASQNIRSSLAWYQQKPGKAPKLLIYAASNLEPGVPSRFSGSGSGTDFTLTISSLQPEDFANYYCQQYEDTPLTFGGGTKVEIK
8 | 3.16 nM | 2.22 nM | 1.82 nM | 11485_Lib1_scFv (scFv, VH-linker-VL; not shown: C-terminal 3xFLAG and SV5 tags) scFv: QVQLVQSGAEVKKPGASVKVSCKVSGAPSAAIIHWVRQAPGKGLEWMGGFTQIFGTAIYAQKFQGRVTMTEDTSTDTAYMELSSLKSEDTAVYYCAREGIGGHDAFDIWGQGTMVTVSSSGGSTITSYNVYYTKLSSSGTDIQMTQSPSSVSASVGDRVTITCRASQDISKNLAWYQQKPGKAPKLLIYKASKLESGVPSRFSGSGSGTDFTLTISSLQPEDFANYYCLHDYTYPPTFGGGTKVEIK
9 | 2.05 nM | 2.62 nM | 0.127 nM | 399_Lib1_scFv (scFv, VH-linker-VL; not shown: C-terminal 3xFLAG and SV5 tags) scFv: QVQLVQSGAEVKKPGASVKVSCKVSGITFTSDYIHWVRQAPGKGLEWMGGMNPYSNKAIYAQKFQGRVTMTEDTSTDTAYMELSSLKSEDTAVYYCATGGLRIAARTSYFDYWGQGTLVTVSSSGGSTITSYNVYYTKLSSSGTDIQMTQSPSSVSASVGDRVTITCRASMDIAGSLAWYQQKPGKAPKLLIYDTSFRATGVPSRFSGSGSGTDFTLTISSLQPEDFANYYCQQYDNPPRLTFGGGTKVEIK
10 | 0.733 nM | 2.7 nM | 3.36 nM | Lib4_P2_A10_scFv (scFv, VH-linker-VL; not shown: C-terminal 3xFLAG and SV5 tags) scFv: QVQLQESGPGLVKPSQTLSLTCTVSGASLGHQYWSWIRQPPGKGLEWIGYIDTSGSTDYNPSLKSRVTMSVDTSKNQFSLKVNSVTAADTAVYYCARVANYYYYMDVWGKGTTVTVSSSGGSTITSYNVYYTKLSSSGTEIVMTQSPATLSLSPGERATLSCRASQSVSNRLAWYQQKPGQAPRLLIYDASNRATGIPARFSGSGSGTDFTLTISSLEPEDFAVYYCQQYFITPSTFGGGTKVEIK
11 | 0.435 nM | 2.72 nM | 0.872 nM | Lib6_P3_A8_scFv (scFv, VH-linker-VL; not shown: C-terminal 3xFLAG and SV5 tags) scFv: EVQLVQSGAEVKKPGASVKVSCKASGYRFTNYDISWVRQAPGQGLEWMGGINPSSGITIYAQKLQGRGTMTTDPSTSTAYMELRSLRSDDTAVYYCARGAAYGDYLDYWGQGTLVTVSSSGGSTITSYNVYYTKLSSSGTESALTQPASVSGSPGQSITISCTGTNLGEKYVSWYQQHPGKAPKLMIYSTSQRPSGVSNRFSGSKSGNTASLTITGLQAEDEADYYCSSYTASSTPGLVFGGGTKLTVL
12 | 1.17 nM | 2.79 nM | 0.621 nM | 965_Lib4_scFv (scFv, VH-linker-VL; not shown: C-terminal 3xFLAG and SV5 tags) scFv: QVQLQESGPGLVKPSQTLSLTCTVSGASFGDNYWSWIRQPPGKGLEWIGYIDTSGSSDYNPSLKSRVTMSVDTSKNQFSLKVNSVTAADTAVYYCARDALGYYYMDVWGKGTTVTVSSSGGSTITSYNVYYTKLSSSGTEIVMTQSPATLSLSPGERATLSCRASQGISGRLAWYQQKPGQAPRLLIYDASARASGIPARFSGSGSGTDFTLTISSLEPEDFAVYYCQQYGTSPYTFGGGTKVEIK
13 | 0.656 nM | 2.85 nM | 0.443 nM | 27_Lib4_scFv (scFv, VH-linker-VL; not shown: C-terminal 3xFLAG and SV5 tags) scFv: QVQLQESGPGLVKPSQTLSLTCTVSGASFGDHYWSWIRQPPGKGLEWIGYIDATGSIDYNPSLKSRVTMSVDTSKNQFSLKVNSVTAADTAVYYCARVASYYYYMDVWGKGTTVTVSSSGGSTITSYNVYYTKLSSSGTEIVMTQSPATLSLSPGERATLSCRASQSITGSYLAWYQQKPGQAPRLLIYGASDRAPGIPARFSGSGSGTDFTLTISSLEPEDFAVYYCQQYGSFPYTFGGGTKVEIK
